Article PMC9482650, “Quantitative fragmentomics allow affinity mapping of interactomes” (Nature Communications, 2022)

How the values were obtained:
Test in all cases: holdup assay
Design in all cases: key: below the threshold = too weak to quantify, mostly under pKd 3.1 to 4
Details in all cases: plain residues with an end cap or a label only (N-terminal biotin on a linker: ado-ado)
LIN7C, Q9NUP9 = biological target: T1, LIN7C, Q9NUP9
T1 sequence (Q9NUP9 88-185, limits assumed, looked up): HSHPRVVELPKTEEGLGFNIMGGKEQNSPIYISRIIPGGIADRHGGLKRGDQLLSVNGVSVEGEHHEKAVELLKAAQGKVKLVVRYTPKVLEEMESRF

PARD3_3, Q8TEW0 = biological target: PARD3_3, Q8TEW0
PARD3_3, Q8TEW0, sequence (Q8TEW0 582-685): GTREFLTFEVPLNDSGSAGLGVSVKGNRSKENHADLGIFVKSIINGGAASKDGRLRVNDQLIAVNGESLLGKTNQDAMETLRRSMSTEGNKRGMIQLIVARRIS

LDB3, O75112 = biological target: LDB3, O75112
LDB3, O75112, sequence (O75112 1-94): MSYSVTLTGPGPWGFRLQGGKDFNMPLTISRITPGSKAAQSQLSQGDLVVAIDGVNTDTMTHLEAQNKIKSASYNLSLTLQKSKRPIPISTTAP

DLG3_3, Q92796 = biological target: T2, DLG3_3, Q92796
T2 sequence (Q92796 374-475, limits assumed, looked up): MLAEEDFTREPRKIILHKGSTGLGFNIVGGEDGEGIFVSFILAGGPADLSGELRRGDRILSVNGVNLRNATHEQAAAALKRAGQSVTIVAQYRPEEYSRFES

APBA3_1, O96018 = biological target: T3, APBA3_1, O96018
T3 sequence (O96018 389-490, limits assumed, looked up): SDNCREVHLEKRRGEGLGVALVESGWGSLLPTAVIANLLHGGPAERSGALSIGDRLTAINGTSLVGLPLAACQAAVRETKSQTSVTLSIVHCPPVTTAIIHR

NHERF4_2, Q86UT5 = biological target: NHERF4_2, Q86UT5
NHERF4_2, Q86UT5, sequence (Q86UT5 220-308): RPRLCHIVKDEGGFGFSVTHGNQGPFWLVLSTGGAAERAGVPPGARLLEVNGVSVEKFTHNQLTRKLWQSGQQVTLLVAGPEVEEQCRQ

MAGI3_2, Q5TCQ9 = biological target: MAGI3_2, Q5TCQ9
MAGI3_2, Q5TCQ9, sequence (Q5TCQ9 398-503): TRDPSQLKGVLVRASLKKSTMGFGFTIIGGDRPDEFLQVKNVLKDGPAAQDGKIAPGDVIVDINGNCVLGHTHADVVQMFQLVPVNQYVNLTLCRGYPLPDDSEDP

ARHGAP21, Q5T5U3 = biological target: T4, ARHGAP21, Q5T5U3
T4 sequence (Q5T5U3 45-169, limits assumed, looked up): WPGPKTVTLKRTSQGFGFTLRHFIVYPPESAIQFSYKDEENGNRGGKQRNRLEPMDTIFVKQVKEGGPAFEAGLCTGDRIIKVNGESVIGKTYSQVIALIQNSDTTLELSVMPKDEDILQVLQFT

PTPN3, P26045 = biological target: PTPN3, P26045
PTPN3, P26045, sequence (P26045 505-587): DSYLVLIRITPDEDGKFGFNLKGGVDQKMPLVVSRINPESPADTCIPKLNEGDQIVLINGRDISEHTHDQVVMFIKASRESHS

FRMPD2_1, Q68DX3 = biological target: FRMPD2_1, Q68DX3
FRMPD2_1, Q68DX3, sequence (Q68DX3 770-861): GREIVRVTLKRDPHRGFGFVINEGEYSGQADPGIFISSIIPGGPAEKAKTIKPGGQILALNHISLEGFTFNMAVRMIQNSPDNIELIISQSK

Inadl_4, Q8NI35 = biological target: Inadl_4, Q8NI35
Inadl_4, Q8NI35, sequence (Q8NI35 547-651): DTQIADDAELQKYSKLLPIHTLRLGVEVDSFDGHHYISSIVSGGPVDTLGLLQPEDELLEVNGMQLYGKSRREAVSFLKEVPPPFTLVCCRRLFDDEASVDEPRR

FRMPD1, Q5SYB0 = biological target: T5, FRMPD1, Q5SYB0
T5 sequence (Q5SYB0 52-145, limits assumed, looked up): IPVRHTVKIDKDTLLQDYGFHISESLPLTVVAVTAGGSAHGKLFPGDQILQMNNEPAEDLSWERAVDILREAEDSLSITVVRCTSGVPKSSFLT

NHERF4_1, Q86UT5-2 = biological target: NHERF4_1, Q86UT5-2
NHERF4_1, Q86UT5-2, sequence (Q86UT5 other isoform, or with tags, fused parts or gaps): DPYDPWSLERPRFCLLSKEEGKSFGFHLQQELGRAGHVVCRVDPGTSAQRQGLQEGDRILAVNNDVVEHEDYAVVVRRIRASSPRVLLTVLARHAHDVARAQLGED

SHANK1, Q9Y566 = biological target: T6, SHANK1, Q9Y566
T6 sequence (Q9Y566 658-767, limits assumed, looked up): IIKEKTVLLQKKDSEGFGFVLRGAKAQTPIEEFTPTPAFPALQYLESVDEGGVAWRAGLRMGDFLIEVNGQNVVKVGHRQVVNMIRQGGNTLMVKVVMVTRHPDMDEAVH

Inadl_2, Q8NI35 = biological target: Inadl_2, Q8NI35
Inadl_2, Q8NI35, sequence (Q8NI35 238-335): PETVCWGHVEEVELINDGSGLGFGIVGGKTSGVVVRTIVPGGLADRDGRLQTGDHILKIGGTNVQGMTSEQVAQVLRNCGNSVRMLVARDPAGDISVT

RAPGEF6, Q8TEU7 = biological target: T7, RAPGEF6, Q8TEU7
T7 sequence (Q8TEU7 525-625, limits assumed, looked up): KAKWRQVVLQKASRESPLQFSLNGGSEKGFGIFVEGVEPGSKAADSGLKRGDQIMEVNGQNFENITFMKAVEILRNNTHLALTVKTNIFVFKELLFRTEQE

DLG2_2, Q15700 = biological target: DLG2_2, Q15700
DLG2_2, Q15700, sequence (Q15700 189-283): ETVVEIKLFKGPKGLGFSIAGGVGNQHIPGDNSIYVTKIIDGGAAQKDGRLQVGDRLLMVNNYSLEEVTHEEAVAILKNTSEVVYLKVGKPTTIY

PDLIM1, O00151 = biological target: PDLIM1, O00151
PDLIM1, O00151, sequence (O00151 1-87): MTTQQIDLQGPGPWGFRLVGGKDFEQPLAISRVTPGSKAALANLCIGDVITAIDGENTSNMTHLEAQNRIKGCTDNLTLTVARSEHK

LNX2_3, Q8N448 = biological target: T8, LNX2_3, Q8N448
T8 sequence (Q8N448 463-564, limits assumed, looked up): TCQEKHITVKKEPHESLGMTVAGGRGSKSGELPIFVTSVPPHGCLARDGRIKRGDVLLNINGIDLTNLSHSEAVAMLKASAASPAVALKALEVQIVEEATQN

MAGI2_4, Q86UL8 = biological target: MAGI2_4, Q86UL8
MAGI2_4, Q86UL8, sequence (Q86UL8 772-865): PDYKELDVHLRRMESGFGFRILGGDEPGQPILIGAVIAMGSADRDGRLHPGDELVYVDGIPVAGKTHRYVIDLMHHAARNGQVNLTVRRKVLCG

MAGI2_3, Q86UL8 = biological target: MAGI2_3, Q86UL8
MAGI2_3, Q86UL8, sequence (Q86UL8 600-682): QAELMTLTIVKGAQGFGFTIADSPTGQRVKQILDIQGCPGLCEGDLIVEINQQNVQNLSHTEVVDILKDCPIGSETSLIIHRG

TJP3_3, O95049 = biological target: T9, TJP3_3, O95049
T9 sequence (O95049 375-456, limits assumed, looked up): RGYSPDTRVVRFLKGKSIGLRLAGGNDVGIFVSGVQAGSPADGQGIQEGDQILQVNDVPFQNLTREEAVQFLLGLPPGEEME

LRRC7, Q96NW7 = biological target: T10, LRRC7, Q96NW7
T10 sequence (Q96NW7 1440-1537, limits assumed, looked up): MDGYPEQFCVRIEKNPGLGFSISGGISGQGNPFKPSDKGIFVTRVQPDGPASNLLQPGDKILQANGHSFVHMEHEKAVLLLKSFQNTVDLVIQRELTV

GRID2IP_1, A4D2P6 = biological target: GRID2IP_1, A4D2P6
GRID2IP_1, A4D2P6, sequence (A4D2P6 1-87): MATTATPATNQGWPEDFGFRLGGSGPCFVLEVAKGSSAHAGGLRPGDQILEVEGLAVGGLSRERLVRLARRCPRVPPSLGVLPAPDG

AHNAK1, Q09666 = biological target: AHNAK1, Q09666
AHNAK1, Q09666, sequence (Q09666 4-100): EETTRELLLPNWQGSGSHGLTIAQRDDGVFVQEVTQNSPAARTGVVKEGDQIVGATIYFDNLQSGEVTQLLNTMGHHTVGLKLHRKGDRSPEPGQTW

APBA1_1, Q02410 = biological target: T11, APBA1_1, Q02410
T11 sequence (Q02410 651-752, limits assumed, looked up): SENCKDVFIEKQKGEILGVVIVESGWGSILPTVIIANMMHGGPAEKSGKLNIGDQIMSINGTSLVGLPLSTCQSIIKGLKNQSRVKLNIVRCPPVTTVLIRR

Inadl_8, Q8NI35 = biological target: Inadl_8, Q8NI35
Inadl_8, Q8NI35, sequence (Q8NI35 1425-1530): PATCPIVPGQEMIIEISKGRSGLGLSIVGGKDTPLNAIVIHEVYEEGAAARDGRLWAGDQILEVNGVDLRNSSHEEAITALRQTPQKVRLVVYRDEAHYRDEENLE

PKRSFIESNV [TANC1, Q9C0D5] was tested, and the pKd (LIN7C, Q9NUP9) was “below the threshold”, the pKd (PARD3_3, Q8TEW0) was “below the threshold” and the pKd (LDB3, O75112) was “below the threshold”. For the same binder, the pKd (DLG3_3, Q92796) was 4.23, the pKd (APBA3_1, O96018) was “below the threshold” and the pKd (NHERF4_2, Q86UT5) was “below the threshold”. The pKd (MAGI3_2, Q5TCQ9) was 5.24, the pKd (ARHGAP21, Q5T5U3) was 3.85 and the pKd (PTPN3, P26045) was 4.57. For the same binder, the pKd (FRMPD2_1, Q68DX3) was “below the threshold”, the pKd (Inadl_4, Q8NI35) was “below the threshold” and the pKd (FRMPD1, Q5SYB0) was “below the threshold”. For the same binder, the pKd (NHERF4_1, Q86UT5-2) was “below the threshold”, the pKd (SHANK1, Q9Y566) was “below the threshold” and the pKd (Inadl_2, Q8NI35) was “below the threshold”. For the same binder, the pKd (RAPGEF6, Q8TEU7) was “below the threshold”, the pKd (DLG2_2, Q15700) was 4.72 and the pKd (PDLIM1, O00151) was “below the threshold”. For the same binder, the pKd (LNX2_3, Q8N448) was “below the threshold”, the pKd (MAGI2_4, Q86UL8) was “below the threshold” and the pKd (MAGI2_3, Q86UL8) was 3.98. For the same binder, the pKd (TJP3_3, O95049) was “below the threshold”, the pKd (LRRC7, Q96NW7) was 4.61 and the pKd (GRID2IP_1, A4D2P6) was “below the threshold”. For the same binder, the pKd (AHNAK1, Q09666) was “below the threshold”, the pKd (APBA1_1, Q02410) was “below the threshold” and the pKd (Inadl_8, Q8NI35) was 4.15.

In the case of QKNRKAQEDL [CES3, Q6UWW8], the pKd (LIN7C, Q9NUP9) is reported as “below the threshold”, the pKd (PARD3_3, Q8TEW0) is reported as “below the threshold” and the pKd (LDB3, O75112) is reported as “below the threshold”. For the same binder, the pKd (DLG3_3, Q92796) was “below the threshold”, the pKd (APBA3_1, O96018) was “below the threshold” and the pKd (NHERF4_2, Q86UT5) was “below the threshold”. The pKd (MAGI3_2, Q5TCQ9) was “below the threshold”, the pKd (ARHGAP21, Q5T5U3) was “below the threshold” and the pKd (PTPN3, P26045) was 3.74. For the same binder, the pKd (FRMPD2_1, Q68DX3) was “below the threshold”, the pKd (Inadl_4, Q8NI35) was “below the threshold” and the pKd (FRMPD1, Q5SYB0) was “below the threshold”. For the same binder, the pKd (NHERF4_1, Q86UT5-2) was “below the threshold”, the pKd (SHANK1, Q9Y566) was “below the threshold” and the pKd (Inadl_2, Q8NI35) was “below the threshold”. For the same binder, the pKd (RAPGEF6, Q8TEU7) was “below the threshold”, the pKd (DLG2_2, Q15700) was “below the threshold” and the pKd (PDLIM1, O00151) was “below the threshold”. For the same binder, the pKd (LNX2_3, Q8N448) was “below the threshold”, the pKd (MAGI2_4, Q86UL8) was “below the threshold” and the pKd (MAGI2_3, Q86UL8) was 3.83. For the same binder, the pKd (TJP3_3, O95049) was “below the threshold”, the pKd (LRRC7, Q96NW7) was “below the threshold” and the pKd (GRID2IP_1, A4D2P6) was “below the threshold”. The pKd (AHNAK1, Q09666) was “below the threshold”, the pKd (APBA1_1, Q02410) was “below the threshold” and the pKd (Inadl_8, Q8NI35) was “below the threshold”.

With DDEDRLVIEI [ZNF831, Q5JPB2] the pKd (LIN7C, Q9NUP9) was “below the threshold”, the pKd (PARD3_3, Q8TEW0) was 4.98 and the pKd (LDB3, O75112) was 3.57. The pKd (DLG3_3, Q92796) was “below the threshold”, the pKd (APBA3_1, O96018) was “below the threshold” and the pKd (NHERF4_2, Q86UT5) was “below the threshold”. The pKd (MAGI3_2, Q5TCQ9) was “below the threshold”, the pKd (ARHGAP21, Q5T5U3) was “below the threshold” and the pKd (PTPN3, P26045) was “below the threshold”. The pKd (FRMPD2_1, Q68DX3) was “below the threshold”, the pKd (Inadl_4, Q8NI35) was “below the threshold” and the pKd (FRMPD1, Q5SYB0) was “below the threshold”. For the same binder, the pKd (NHERF4_1, Q86UT5-2) was “below the threshold”, the pKd (SHANK1, Q9Y566) was “below the threshold” and the pKd (Inadl_2, Q8NI35) was 3.57. For the same binder, the pKd (RAPGEF6, Q8TEU7) was “below the threshold”, the pKd (DLG2_2, Q15700) was “below the threshold” and the pKd (PDLIM1, O00151) was “below the threshold”. The pKd (LNX2_3, Q8N448) was “below the threshold”, the pKd (MAGI2_4, Q86UL8) was “below the threshold” and the pKd (MAGI2_3, Q86UL8) was “below the threshold”. The pKd (TJP3_3, O95049) was “below the threshold”, the pKd (LRRC7, Q96NW7) was “below the threshold” and the pKd (GRID2IP_1, A4D2P6) was “below the threshold”. For the same binder, the pKd (AHNAK1, Q09666) was “below the threshold”, the pKd (APBA1_1, Q02410) was “below the threshold” and the pKd (Inadl_8, Q8NI35) was “below the threshold”.
